Measurements reported in patent US12624112 (MABWELL SHANGHAI BIOSCIENCE, dated 2026).

Tests used:
ST2 on KU812 cells [1] = biological target: T1, ST2 on KU812 cells (UniProt Q01638 19-556, limits assumed); assay: cell-based or functional assay
T1 sequence (looked up): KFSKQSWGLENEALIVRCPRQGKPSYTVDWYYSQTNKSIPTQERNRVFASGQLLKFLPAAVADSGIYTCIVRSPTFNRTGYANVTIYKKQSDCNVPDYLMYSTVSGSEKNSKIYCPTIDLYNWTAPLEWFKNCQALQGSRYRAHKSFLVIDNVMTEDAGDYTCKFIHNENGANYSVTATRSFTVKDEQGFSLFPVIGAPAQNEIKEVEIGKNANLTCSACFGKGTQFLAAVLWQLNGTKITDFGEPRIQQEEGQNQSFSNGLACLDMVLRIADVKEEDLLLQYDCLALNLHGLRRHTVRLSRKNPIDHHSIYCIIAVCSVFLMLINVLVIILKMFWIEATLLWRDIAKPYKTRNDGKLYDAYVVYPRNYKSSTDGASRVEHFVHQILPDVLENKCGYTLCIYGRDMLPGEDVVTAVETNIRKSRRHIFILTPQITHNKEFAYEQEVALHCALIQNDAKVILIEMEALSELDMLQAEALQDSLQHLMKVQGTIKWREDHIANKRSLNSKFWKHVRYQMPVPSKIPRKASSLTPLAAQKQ

ST2 on KU812 cells [2] = biological target: T1, ST2 on KU812 cells; assay: cell-based or functional assay; remark: listed apart in the source
Cyno ST2-fc [3] = biological target: T2, Cyno ST2-fc (cyno; human, UniProt A0A2K5UDB8 19-331); assay: ELISA, coated cyno ST2-fc
T2 construct: also called cyno ST2 fused with a human IgG1 Fc tag at the C-terminus
T2 sequence: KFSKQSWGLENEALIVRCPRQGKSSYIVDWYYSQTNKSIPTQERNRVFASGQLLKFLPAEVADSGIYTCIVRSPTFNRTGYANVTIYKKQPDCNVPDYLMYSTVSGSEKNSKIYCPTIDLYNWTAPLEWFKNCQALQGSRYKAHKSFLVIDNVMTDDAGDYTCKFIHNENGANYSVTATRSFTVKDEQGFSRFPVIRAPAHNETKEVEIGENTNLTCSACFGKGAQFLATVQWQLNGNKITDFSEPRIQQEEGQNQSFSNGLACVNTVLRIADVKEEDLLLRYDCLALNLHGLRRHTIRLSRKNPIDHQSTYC
Method: Cyno ST2-fc was diluted with a coating buffer to 1 μg/mL, added into 96-well plates at 50 μL/well and coated overnight at 4° C. Next day, the coated plates were taken, washed with PB ST for 3 times, and then incubated using a blocking buffer at room temperature for 1 hr. Subsequently, the plates were washed with PBST for 3 times again. Starting at 1000 ng/mL, each murine antibody was diluted 3-fold to obtain serial dilutions of 8 concentrations in total which were then added into the 96-well plates at 50 μL/well. The plates were incubated at room temperature for 1 hr, washed with PB ST for 3 times; and then a goat anti-mouse secondary antibody (1:10000) was added at 50 μL/well into the 96-well plates which subsequently were incubated at room temperature for 1 hr. The 96-well plates were washed with PB ST for 3 times, and TMB was added at 50 μL/well to develop color in dark for 10 min. Afterwards, 2 M sulfuric acid was added to stop reaction; and GD values at 450 nm were read by a microplate reader. It can be seen that the murine antibodies can bind to cyno ST2, with a binding trendency consistent with the binding to human ST2.

Human ST2-his [4] = biological target: T3, Human ST2-his (human, UniProt Q01638 19-328); assay: ELISA, coated human ST2-his
T3 construct: Expressed in CHO-K1; also called human ST2 fused with a 6-histidine tag at the C-terminus
T3 sequence: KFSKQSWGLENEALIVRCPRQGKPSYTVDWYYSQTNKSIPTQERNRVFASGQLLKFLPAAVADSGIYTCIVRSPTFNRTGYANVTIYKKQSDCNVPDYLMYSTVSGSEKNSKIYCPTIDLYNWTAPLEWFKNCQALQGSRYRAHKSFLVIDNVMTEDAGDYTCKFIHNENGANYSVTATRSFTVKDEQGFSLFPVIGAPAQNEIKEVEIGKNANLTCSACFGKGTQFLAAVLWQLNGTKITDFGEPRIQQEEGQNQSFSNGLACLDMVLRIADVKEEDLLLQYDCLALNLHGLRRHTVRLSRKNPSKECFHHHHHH
Method: Human ST2-his was diluted with a coating buffer to 1 μg/mL, added into plates at 50 μL/well, and coated overnight at 4° C. Next day, the coated plates were taken, washed with PBST for 3 times, and then incubated using a blocking buffer at room temperature for 1 hr. Subsequently, the plates were washed with PBST for 3 times again. Starting at 100 ng/mL, each murine antibody was diluted 3-fold to obtain serial dilutions of 8 concentrations in total which were then added into the 96-well plates at 50 μL/well. The plates were incubated at room temperature for 1 hr, washed with PBST for 3 times; and then a goat anti-mouse secondary antibody (1:10000) was added at 50 μL/well into the 96-well plates which subsequently were incubated at room temperature for 1 hr. The 96-well plates were washed with PBST for 3 times, and TMVB was added at 50 μL/well to develop color in dark for 10 min. Afterwards, 2 M sulfuric acid was added to stop reaction; and GD values at 450 nm were read by a micro-plate reader.

Human ST2-fc (human) = Human ST2-fc (human) (UniProt Q01638); assay: competition ELISA, coated ST2-fc, competitor IL33-his
Cyno ST2-fc [5] = biological target: T2, Cyno ST2-fc; assay: SPR Biacore X100, antibody on CM5, cyno ST2-fc analyte
Method: The experiment on the interactions between the anti-human ST2 antibodies and cyno ST2-fc was performed using Biacore X100, and was carried out at 25° C. in HBS-EP (1×) buffer (pH 7.4). Each antibody was immobilized on the surface of CM5 chip using an amino coupling kit. Following the antibody immobilization, a solution of cyno ST2-fc (2-fold gradient dilution from a starting concentration of 8 nM, to obtain 6 concentrations in total; the starting concentration might be increased if the signal of some sample was too low) was injected. Association was monitored for 2 min and dissociation for 10 min, and the sensor surface was regenerated by injecting a solution of glycine at pH 1.5.

Human ST2-his [6] = biological target: T3, Human ST2-his; assay: SPR Biacore X100, antibody on protein A, ST2-his analyte
Method: On the basis of the results of the quantitative screenings of murine antibodies above together, 19 murine antibodies were selected for affinity determination and in vitro pharmacological study. The experiment on the interaction between the anti-human ST2 antibodies and human ST2-his was performed using Biacore X100, and was carried out at 25° C. in HBS-EP (1×) buffer (pH 7.4).
Each anti-human ST2 antibody was diluted to 10 nM and captured on the surface of a protein A chip (for a capture time of 60 s). […] Association was monitored for 4 min and dissociation for 10 min, and the sensor surface was regenerated by injecting a solution of glycine at pH 2.0. Data generated for kinetics and affinity assay were analyzed using BIAevaluation software.

B1: 5888-116H1+L1 (antibody, V domains shown)
VH: QVQLQQSGAELVRPGASVTLSCKASGYTFTDSEMYWVRLTPVHGLEWIGAIDPETGDTAFNQKFKGKATLTADKSSSTAYMELRSLTSEDSVVYYCTRAFDNDNDDGFAYWGQGTLVTVSA
VL: QIVMTQSPAIMSASPGEKVTMTCSASSSVNYMHWYQQKSGTSPKRWIYDTSKLASGVPARFSGSGSGTSYSLTISSMEAEDAATYYCQQWSSNPLTFGAGTKLELK
notes: murine antibody
For B1, the “IC50, activation of KU812-NF-κB reporter gene by IL33” value (“IC50, activation” for short) (ST2 on KU812 cells [1]) was 0.206 µg/mL, the “Relative activity (%) compared with CNTO7160, KU812-NF-κB reporter” value (“Relative activity (%) … KU812-NF-κB reporter” for short) (ST2 on KU812 cells [1]) was 122% and the “Maximum inhibition rate (%), KU812 IL-5 production” value (from here on “Maximum inhibition rate (%)”) (ST2 on KU812 cells [2]) was 81.4%. For the same binder, the “Relative activity (%), KU812 IL-5 production” value (ST2 on KU812 cells [2]) was 238%, the EC50 (Cyno ST2-fc [3]) was 0.0384 µg/mL and the “Relative activity (%)” value (Cyno ST2-fc [3]) was 63.7%. For the same binder, the EC50 (Human ST2-his [4]) was 0.0288 µg/mL, the “Relative activity (%) compared with CNTO7160” value (Human ST2-his [4]) was 63.4% and the IC50 (Human ST2-fc (human)) was 0.9 µg/mL. The Relative activity (%) compared with CNTO7160 (Human ST2-fc (human)) was 65.2%, the Kd (Cyno ST2-fc [5]) was 0.0469 nM and the koff (Cyno ST2-fc [5]) was 0.000382 s⁻¹. For the same binder, the kon (Cyno ST2-fc [5]) was 8.14e+06 M⁻¹ s⁻¹, the Kd (Human ST2-his [6]) was 0.113 nM and the koff (Human ST2-his [6]) was 0.00111 s⁻¹. The kon (Human ST2-his [6]) was 9.87e+06 M⁻¹ s⁻¹.

B2: 5888-153H1+L2 (antibody, V domains shown)
VH: QVQLQQSGAELVRPGASVTLSCKASGYTFTDYELHWVKQTPVHGLEWIGTIDPETGDTVYNQKFKAKAILTADKSSSTAYMEFRSLTSEDSAVCYCTRAFYNDYDDGFAYWGQGTLVTVSA
VL: QIVMTQTPAIMSASPGEKVTMTCSVSSSVSYMHWYQQKSGTSPKRWIYDTSKLASGVPARFSGSGSGTSYSLTINNMEAEDAATYYCQQWNSSPLTFGAGTKLELK
notes: murine antibody
B2 was tested, and the “IC50, activation” value (ST2 on KU812 cells [1]) was 0.0495 µg/mL, the “Relative activity (%) … KU812-NF-κB reporter” value (ST2 on KU812 cells [1]) was 506% and the “Maximum inhibition rate (%)” value (ST2 on KU812 cells [2]) was 86%. The “Relative activity (%), KU812 IL-5 production” value (ST2 on KU812 cells [2]) was 115%, the EC50 (Cyno ST2-fc [3]) was 0.0303 µg/mL and the “Relative activity (%)” value (Cyno ST2-fc [3]) was 80.7%. The EC50 (Human ST2-his [4]) was 0.0209 µg/mL, the “Relative activity (%) compared with CNTO7160” value (Human ST2-his [4]) was 87.4% and the IC50 (Human ST2-fc (human)) was 0.75 µg/mL. It also gave a Relative activity (%) compared with CNTO7160 (Human ST2-fc (human)) of 78.4%, a Kd (Cyno ST2-fc [5]) of 0.143 nM and a koff (Cyno ST2-fc [5]) of 0.00139 s⁻¹. It also gave a kon (Cyno ST2-fc [5]) of 9.68e+06 M⁻¹ s⁻¹, a Kd (Human ST2-his [6]) of 0.0943 nM and a koff (Human ST2-his [6]) of 0.000864 s⁻¹. It also gave a kon (Human ST2-his [6]) of 9.17e+06 M⁻¹ s⁻¹.

B3: 5888-357H+L (antibody, V domains shown)
VH: QVQLQQSVTELVRPGASVTLSCKASGYRFTDSEMHWVKQTPVHGLEWIGTIDPETGGTVYNQKFKGKAKLTADRSSSTVSMELRSLTSEDSAVYYCTRAFYNDFDDGFAYWGQGTLVTVSA
VL: QIVMTQSPAIMSASPGEKVTLTCSASTSVSYMHWYQQKSGTSPKRWIYDTSKLASGVPARFSGSGSGTSYSLTISSMEAEDAATYYCQQWSSNPLTFGAGTKLELK
notes: murine antibody
B3 was tested, and the “IC50, activation” value (ST2 on KU812 cells [1]) was 0.0552 µg/mL, the “Relative activity (%) … KU812-NF-κB reporter” value (ST2 on KU812 cells [1]) was 454% and the “Maximum inhibition rate (%)” value (ST2 on KU812 cells [2]) was 71%. The “Relative activity (%), KU812 IL-5 production” value (ST2 on KU812 cells [2]) was 98.5%, the EC50 (Cyno ST2-fc [3]) was 0.0192 µg/mL and the “Relative activity (%)” value (Cyno ST2-fc [3]) was 127%. For the same binder, the EC50 (Human ST2-his [4]) was 0.0113 µg/mL, the “Relative activity (%) compared with CNTO7160” value (Human ST2-his [4]) was 124% and the IC50 (Human ST2-fc (human)) was 0.62 µg/mL. The Relative activity (%) compared with CNTO7160 (Human ST2-fc (human)) was 94.7%, the Kd (Cyno ST2-fc [5]) was 0.129 nM and the koff (Cyno ST2-fc [5]) was 0.000826 s⁻¹. For the same binder, the kon (Cyno ST2-fc [5]) was 6.41e+06 M⁻¹ s⁻¹, the Kd (Human ST2-his [6]) was 0.16 nM and the koff (Human ST2-his [6]) was 0.0007 s⁻¹. For the same binder, the kon (Human ST2-his [6]) was 4.38e+06 M⁻¹ s⁻¹.

B4: 5888-379H1+L2 (antibody, V domains shown)
VH: QIQLAQSGPELKKPGETVKISCKASGYTFINYGMNWVKQAPGKDLKWMGWINTYIGEPTYGDNFKGRFAFSLETSASTVYLQINNLKNEDTATYFCAREGDGFAYWGQGTLVTVSA
VL: DIVMTQSPPSLSVSVGEKVTMSCKSSQSLLYSGNQNNYLAWYQQKPGQPPKLLIYGASTRESGVPDRFTGSGSGTDFTLTISSVQAEDLAVYYCQNDHSYPYTFGGGTKLEIK
notes: murine antibody
In the case of B4, the “IC50, activation” value (ST2 on KU812 cells [1]) is reported as 0.391 µg/mL, the “Relative activity (%) … KU812-NF-κB reporter” value (ST2 on KU812 cells [1]) is reported as 64.2% and the “Maximum inhibition rate (%)” value (ST2 on KU812 cells [2]) is reported as 92.7%. The “Relative activity (%), KU812 IL-5 production” value (ST2 on KU812 cells [2]) was 19.2%, the EC50 (Cyno ST2-fc [3]) was 0.0602 µg/mL and the “Relative activity (%)” value (Cyno ST2-fc [3]) was 40.6%. For the same binder, the EC50 (Human ST2-his [4]) was 0.0295 µg/mL, the “Relative activity (%) compared with CNTO7160” value (Human ST2-his [4]) was 33.9% and the IC50 (Human ST2-fc (human)) was 0.83 µg/mL. The Relative activity (%) compared with CNTO7160 (Human ST2-fc (human)) was 70.1%, the Kd (Cyno ST2-fc [5]) was 0.0317 nM and the koff (Cyno ST2-fc [5]) was 0.000152 s⁻¹. For the same binder, the kon (Cyno ST2-fc [5]) was 4.78e+06 M⁻¹ s⁻¹, the Kd (Human ST2-his [6]) was 0.571 nM and the koff (Human ST2-his [6]) was 0.000546 s⁻¹. The kon (Human ST2-his [6]) was 957000 M⁻¹ s⁻¹.
